Measurements from patent US20250353904A1 (INSTITUTE OF SCIENCE TOKYO, published 2025).

T1: human reduced HMGB1 (human, UniProt P09429 1-215, reduced form as printed)
T1 sequence (looked up): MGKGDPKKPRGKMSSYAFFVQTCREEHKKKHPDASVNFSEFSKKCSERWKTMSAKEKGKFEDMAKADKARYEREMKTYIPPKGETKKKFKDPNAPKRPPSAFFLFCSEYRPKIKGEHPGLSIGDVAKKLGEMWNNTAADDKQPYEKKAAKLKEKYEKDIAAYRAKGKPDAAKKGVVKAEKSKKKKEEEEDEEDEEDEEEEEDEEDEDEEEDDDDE

T2: human disulfide HMGB1 (human, UniProt P09429 1-215, disulfide form (ds-HMGB1) as printed; the cysteines involved are not stated)
T2 construct: also called human dsHMGB1; ds-HMGB1
T2 sequence (looked up): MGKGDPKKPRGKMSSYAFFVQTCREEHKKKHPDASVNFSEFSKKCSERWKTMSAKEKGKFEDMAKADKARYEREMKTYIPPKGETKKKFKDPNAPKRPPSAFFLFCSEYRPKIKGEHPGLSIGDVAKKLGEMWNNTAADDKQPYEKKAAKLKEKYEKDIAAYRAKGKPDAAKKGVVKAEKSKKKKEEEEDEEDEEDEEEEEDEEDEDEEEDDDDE


What was measured:
human reduced HMGB1 [1] = target: T1, human reduced HMGB1; assay: SPR as in Example 1; unit inferred; human reduced HMGB1
human disulfide HMGB1 [2] = target: T2, human disulfide HMGB1; assay: ELISA, saturation curve: concentration of bound antibody against concentration of added antibody, on human dsHMGB1
human disulfide HMGB1 [3] = target: T2, human disulfide HMGB1; assay: SPR, antibody after 6-month storage at 4 C; unit inferred; after storage for 6 months at 4° C
human reduced HMGB1 [4] = target: T1, human reduced HMGB1; assay: ELISA, saturation curve: concentration of bound antibody against concentration of added antibody, on human reduced HMGB1
human disulfide HMGB1 [5] = target: T2, human disulfide HMGB1; assay: SPR as in Example 1; unit inferred; human dsHMGB1; before storage
human disulfide HMGB1 [6] = target: T2, human disulfide HMGB1; assay: SPR, antibody after against before 6-month storage at 4 C
[7] = target: human HMGB1 protein (human) (UniProt P09429); assay: SPR, Biacore T100, antibody immobilized on chip, human HMGB1 as analyte

| Binder | Kd (human reduced HMGB1 [1]) | Kd (human disulfide HMGB1 [2]) | Kd (human disulfide HMGB1 [3]) | Kd (human reduced HMGB1 [4]) | Km (human reduced HMGB1 [4]) | Kd (human disulfide HMGB1 [5]) | fold increase of KD after storage against before storage (human disulfide HMGB1 [6]) | Kd [7] |
| --- | --- | --- | --- | --- | --- | --- | --- | --- |
| human monoclonal antibody #129-L2 (antibody, human IgG1, kappa, V domains shown) VH: EVQLLESGGGLVQPGGSLRLSCAASGFTFSSYAMSWVRQAPGKGLEWVSDISGSGGSTYYADSVKGRFTISRDNSKNTLYLQMNSLRAEDTAVYYCARGYGMDVWGQGTMVTVSS VL: DIQMTQSPSSLSASVGDRVTITCRASQSVTNYLAWYQQKPGKAPKLLIYGASILETGVPSRFSGSGSGTDFTLTINSLQPEDFATYYCLQHASTPLTFGQGTKLEIKT | 15.1 µM | 0.0549 nM | 0.0351 nM | 6.88 µM | 4.34e-09 M (from the axes; none beside the number) | 0.0144 nM | ~2.5 fold |  |
| mouse monoclonal antibody 2C8C (antibody, from another filing, V domains shown) VH: QVQLQQSGPELVKPGASVKLSCKASGYTFTDYTIHWVKQSPGQGLEWIGWIYPGSGNTKYNDKFKGKATMTADKSSSTAYMQLSSLTSEDSAVYFCARGFAYWGQGTLVTVSA VL: DIVLTQSPATLSVTPGDSVSLSCRASQSISNNLHWYQQKSHESPRLLIKYASQSISGIPSRFSGSGSGTDFTLSINSVETEDFGMYFCQQTNSWPLTFGAGTKLELK |  |  |  |  |  |  |  | 1.95 nM |
